# Article PMC11419269
# Columns and labels:
# C1q (Homo sapiens) = C1q (Homo sapiens) (UniProt P02745); test: ELISA; details: cited from earlier work
# [1] = target: oAβ42 Aβ42 (Homo sapiens) (UniProt P05067); details: cited from earlier work
# TREM2 L71D (human) = TREM2 L71D (human) (UniProt Q9NZC2); test: BLI; biotinylated TREM2 WT and variants immobilised on SA biosensors; C1q 62.5 – 1000 nM in PBS with 0.1% BSA and 0.005% Tween-20; 1:1 kinetic fits
# TREM2 M41D (human) = TREM2 M41D (human) (UniProt Q9NZC2); test: as above
# TREM2 R62H (human) = TREM2 R62H (human) (UniProt Q9NZC2); test: as above
# TREM2 R47H (human) = TREM2 R47H (human) (UniProt Q9NZC2); test: as above
# TREM2 F74D (human) = TREM2 F74D (human) (UniProt Q9NZC2); test: as above
# TREM2 WT (human) [2] = target: TREM2 WT (human) (UniProt Q9NZC2); test: as above
# TREM2 WT (human) [3] = target: TREM2 WT (human) (UniProt Q9NZC2); test: BLI; sequential competition: biotinylated TREM2 WT on SA biosensors, first ligand or no ligand at one concentration (500 nM apoE2, apoE4, oAβ42 or IL-34; 1000 nM C1q), buffer, then second ligand
# TREM2 WT (human), sequence (Q9NZC2 19-174): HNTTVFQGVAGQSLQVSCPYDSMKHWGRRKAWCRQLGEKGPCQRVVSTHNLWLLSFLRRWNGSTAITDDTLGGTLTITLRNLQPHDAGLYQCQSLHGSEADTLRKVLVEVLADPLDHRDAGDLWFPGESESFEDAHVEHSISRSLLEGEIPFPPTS
# TREM2, sequence (Q9NZC2 19-174): as above
# TREM2 R62H (human), sequence (Q9NZC2 19-174 R62H): as the sequence (Q9NZC2 19-174) above, with R44H counted along it
# C1q (Homo sapiens), sequence (P02745 23-245, chain 1 of 3): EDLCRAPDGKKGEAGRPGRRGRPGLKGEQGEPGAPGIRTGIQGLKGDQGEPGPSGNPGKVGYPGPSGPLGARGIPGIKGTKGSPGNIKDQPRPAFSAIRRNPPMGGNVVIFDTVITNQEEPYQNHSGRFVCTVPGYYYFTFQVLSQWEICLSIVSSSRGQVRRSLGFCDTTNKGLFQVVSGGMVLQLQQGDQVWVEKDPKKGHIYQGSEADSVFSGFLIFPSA
# C1q (Homo sapiens), sequence (P02746 28-253, chain 2 of 3, further chain): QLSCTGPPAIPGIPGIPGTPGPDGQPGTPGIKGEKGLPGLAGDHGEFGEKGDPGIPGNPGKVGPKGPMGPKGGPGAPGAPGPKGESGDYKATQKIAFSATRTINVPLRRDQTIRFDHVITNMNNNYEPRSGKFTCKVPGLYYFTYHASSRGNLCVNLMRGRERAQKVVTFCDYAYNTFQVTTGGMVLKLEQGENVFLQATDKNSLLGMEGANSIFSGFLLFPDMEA
# C1q (Homo sapiens), sequence (P02747 29-245, chain 3 of 3, further chain): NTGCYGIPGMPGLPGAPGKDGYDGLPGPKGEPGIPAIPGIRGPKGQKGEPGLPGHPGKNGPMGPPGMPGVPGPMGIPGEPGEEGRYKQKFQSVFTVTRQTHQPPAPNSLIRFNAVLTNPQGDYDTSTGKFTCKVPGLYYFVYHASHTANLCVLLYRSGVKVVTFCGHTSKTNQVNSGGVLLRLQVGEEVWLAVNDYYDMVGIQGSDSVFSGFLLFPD
# TREM2 R47H (human), sequence (Q9NZC2 19-174 R47H): as the sequence (Q9NZC2 19-174) above, with R29H counted along it
# TREM2 M41D (human), sequence (Q9NZC2 19-230 M41D): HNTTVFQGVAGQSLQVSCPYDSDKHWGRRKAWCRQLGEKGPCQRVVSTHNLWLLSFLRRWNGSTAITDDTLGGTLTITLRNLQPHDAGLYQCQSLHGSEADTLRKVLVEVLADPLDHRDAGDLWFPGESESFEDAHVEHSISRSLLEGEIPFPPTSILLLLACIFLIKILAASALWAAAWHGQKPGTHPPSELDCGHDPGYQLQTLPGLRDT
# TREM2 F74D (human), sequence (Q9NZC2 19-230 F74D): as the sequence (Q9NZC2 19-230 M41D) above, with D23M, F56D counted along it
# TREM2 L71D (human), sequence (Q9NZC2 19-230 L71D): as the sequence (Q9NZC2 19-230 M41D) above, with D23M, L53D counted along it
Kd (TREM2 L71D (human)) [nM],Kd (TREM2 M41D (human)) [nM],Kd (TREM2 R62H (human)) [nM],Kd (TREM2 R47H (human)) [nM],Kd (TREM2 F74D (human)) [nM],Kd (TREM2 WT (human) [2]) [nM],percent decrease of apoE2 binding to TREM2 after pre-binding 1000 nM C1q (TREM2 WT (human) [3]) [%],Substance,Kd (C1q (Homo sapiens)) [nM],Kd [1] [nM]
,,,,,,,TREM2 (from UniProt Q9NZC2),7.35,526
58,2540,1660,180,110,650,11.4,complement C1q (complex),,
